Assay: soluble on expression in E. coli; label from the status in PepcDB or PDB records

Soluble on expression in E. coli, not soluble:
ALTVRKHYTKEQARVTVVNKYPTHQIITELHRLAAGNVSEKAVAMPLEKLFKGKDIDLKIAEVSSFSVDKKEVALADGSTLTYDALVVGLGSVTAYFGIPGLEENSMVLKSAADANKVFQHVEDRVREYSKTKNEADATILIGGGGLTGVELVGELADIMPNLAKKYGVDHKEIKLKLVEAGPKILPVLPDDLIERATASLEKRGVEFLTGLPVTNVEGNVIDLKDGSKVVANTFVWTGGVQGNPLVGESGLEVNRGRATVNDFLQSTSHEDVFVAGDSAVYFGPDGRPYPPTAQIAWQMGELIGYNLFAYLEGKTLETFKPVNSGTLASLGRKDAVAIIGANSTPLKGLPASLMKEASNVRYLTHIK, MGSDKIHHHHHHMAIRAKTNNLIQIRPLTGRRLANSEHNRQEMKNGATVLTSKPQRLVFELTNACNLNCLMCGRNSATFELTRFNSEWFKKFEPIMSDIEEVTLMGWGEPTIHPQFKEMLQYLHERGIRKYFCTNGMRLDVLKDAIFDYEVDVFAVSMDGADAKTNEFLRRGLNYQKVIEGLKAITNEKALRGLNFPHINFVMTMMKSNIRQLPDMVDLAAELGLNEVKGVFLTAFSENLLEETLFDDMDLVRYCFGQAEERAAKLGILLKLPHQRGEDPAGDAAHKPCFTAWRDFFLGSDGYVRACMSSPEKLFHIDQYPDFESMWNSREYQEWRAQVNVPGKMCPSCGRCYQSSFANWNKEHAFIQIDTEFSPKWEK, MGSDKIHHHHHHKDDDNVETGAFDPSKPVAISDFTPKEGGAYQKLLIYGENFGTDVSKVKVKIGGKDAIVINVKSTYVYCFVPSGAFSGEIEITVGEGENAVTTTASTTFSYEKKMVVGTLCGYRNNRDDQGWRDGPFDGPEGVKCCGFSDNGRLAFDPLNKDHLYICYDGHKAIQLIDLKNRMLSSPLNINTIPTNRIRSIAFNKKIEGYADEAEYMIVAIDYDGKGDESPSVYIIKRNADGTFDDRSDIQLIAAYKQCNGATIHPINGELYFNSYEKGQVFRLDLVDYFKTIKNGGSWDPIVKNNPNTFKQLFTIADPSWEFQIFIHPTGKYAYFGVINNHYFMRSDYDEIKKEFITPYNFVGGYKQSGYRDDVGTEARMNNPCQGVFVKNPDYTGEEEYDFYFVDRLNFCVRKVTPEGIVSTYAGRGASTSLADGNQWGTDDGDLREVARFRDVSGLVYDDVKEMFYVHDQVGHTIRTISMEQEENVAGDENIPEDESTVESNE, MTKLQGLQGLKHIKAVVFDMDGTLCLPQPWMFPAMRNAIGLEDKSIDILHFIDTLPTEKEKKEAHDRIELVEAKAMKEMQPQPGLVDIMRYLTKNGISKNICTRNVGAPVETFVKRFIPSELSRFDYIVTREFRPTKPQPDPLLHIASKLNIRPLEMIMVGDSFDDMKSGRSAGCFTVLLKNHVNGHLLLEHKELVDVSVEDLSEIIELIQNMNKESF, MSSKNEQTPKVPAELDPLNETIFREQMYAIYQVCQYPSKEQYAEWAQTYQIQQRRIRKWFDNRRTRDRERRKRKGDDNEDSSEISKRGRVTCGLDYKNHEEESTDDFQDDIEELDNSQFEMAKVSSIRDELKDVKSESPPVMEQSFHLRTVQHVSTPRRDRIIPESQTLFVPAGCSLDYEKWTPAEFLQWTSNFLSSAQAMDIIKSQEISGDTMESFFDDPDFRKETGMPYGPFQTIKKHAATVINRFNGYE, MNLPEVSEKLIEQLNHGSTKAFDKIYHTYYLYLCAIAVYYVHDKRVAGEIVNDVFVSFWQNRHHITYPALPYLRRAIQNASISYLRSSAFNERIMTEQMEEIWAFLENHILSSDNPLQALESSEMNEIILRKVEELPAKCRAVFKASLYEGKSYSEIAEEQNINVATVRVQMKIALTKLRESLGTPYMIAILMFL, MGSDKIHHHHHHMNWKVTIKNTIEELAKLKKDVKIENEGDPEHELSDAEDKVMKIELEEEFKPTMYSLYEFKSLNDKRIASIDSSSRYLRDFSVNTCLIGLSVYSNREGFIDGPFTVDIPYIGISSYREILESLKIDDINVRYKNVVNYYYVNEPNNEYKIDDIADELRLEAENVGLKRVIQNHDIVIIDGPIYPTPLELTEEINLETEARRKHRLAYAKLVNERIELLNNNVIGVVKRLENSKKLWRVKEINETIGNVKRMKDVTIIELIDERLCRKNYEYVCTIGPFKIEYALEVKDEDGRNVIEKVPTKYAYYVIIRKKYFPPTFLRIESTNKNLDISPVLSRLTERLMPTYIEIVDRRSKRISASLFLYAYEIASNYLNIIHDDKMGYLSVISQFTSE, MTSGTTRWLDDCTPRALERFADELIAMAEQREDEARRRFYEGMAVAAKLIALRWEGKCAYIDDHLLDNVYEALAVFSLEKLEKTLAMEAEEAHGGGRCSFCLKEKPRLAKGPLAAICDDCLQFGLQVIAKQP, MGSSHHHHHHGKTIFVIVPTNEEQVAFLEALAKQDELNFDWQNPPTEPGQPVVILIPSDMVEWFLEMLKAKGIPFTVYVEEGGSENLYFQGGGGGGLASGSSSAEGGAKRFSRQQIIQHVKKSLLYTAFDVRWVPQTASFAVVGQYPNNHGALSVYQLHHGDVQPTVEVRLPHPLKCCTFGHNISFSSSGSGSGGNSSSITAANATMNQIATGDFAGSLQIFDLSRLGSTPPSAPNALSDVTAASVLHIPHAHESIINAIDGARYSGPPEVATGSRDGSVKVWDTRQSNKPVVSLNPADPARARDCWTVRLGNSFDPDERVVAAGYDNGDVKIFDLRTQKMLHEMHVNNGVCDLEFDRPDIPMNKLLVSSLEGRVRCYDMRTLHPKLGYAYVEERVSEGTVWCSRALPQNREIFLSGGGGELTLCLYKYPPERTLKDGDGLQRGVAGAVEELNKAKIGDQPINAMDWNRSKEGLAVCASFDQSIRVMLVTKLGLLS, MSLKEGAWGIIGVPFDSTTSYHPGSRFGPIVVREASYGFEKYNTIFNTQLDNIFYDFGDVNVVFGNCKKTCDIIEDTVNELSDLKIKPLTIGGEHSLTIGVLNSLTKKYDDLTVVHLDAHRDLADTFIGELYSHASVMKRVHEMGVKELVQIGIRSASKEEEDFVKNQSNITTFKNNDVFHHLDNIEYYLSIIDTPIYLSIDMDVFDPSIAPTVGNPTPNGIAYGHIEAMLQTLSLKNVVGMDVVETAGDRLGDITAVSASKIIYDFLSLLEGHHHHHH, MAHHHHHHMAKHSTFKNLVKLHGDMKKEELLVLFFHSCILDNNFIYKLNDEQKYEKSESHEKIKISNGYIKHMTDVGSGKFFLSRILIDPEWRSNSSSYNFLYQSVDTNDTYNLNLVKIENSLVVQIINTAQPSVVHSVTIDVGEYVNECTAEEGKTDNIEDRVMMEKLEGVFQTHILSHMKKGSSNNILGDNSSSKGKGPKGLIIESNANEHFRNVFQTNPDPYLLPNFNANHFDDKNPNIGRSLIPDLRNNVPILKPDGLLVGPDNKFFNPKNLRYDPIGPFGNEPNADNKPFEFQDNFPF, MGSDKIHHHHHHMGDRLYFERFIWFDSQIRNGCYPNASALARKFEFDIKTAQRSIEYFRDRLGAPLDYDASRRGYRYYDPNYQLPVTHLSESELVALLASRKLLTDAAAGPLGDELEKVSNRLGALLSNGLKGKINPERAFSFRWNGMAASDPVIFEQAVSALLSCRLLTFCYYSPLAGACTARTVEPHHMINYMGAWHLIAWCRLRNDWRDFHLARVSLAHLEEEIFSPRDETTWRPCLDETFGIFQNRERFDVTIRFSADRARWVREELWHQDQSTRDLDTGEVELTIPVSHEAEILMEVLKHGSHAEVMEPIWLRDRIREEIGKMQKKY, MAHQEHFQFGYRRHRDQDRQDPARHPVVVVGAGPVGLSLAIDLAQRGQNVVLLDDADRIGEGSRAICFSKRALEVWDRLGVGAQMVEKGVVWQVGKIFRRDEMVYRFDLLPETGHKMPAFINLQQYYAEAFLVGRVQQLPQIDLRWRNKVTALAQHNDHAELTIETPDGPYRLAADYVIACDGARSSLRGMVGAEFAGEVFEDQFLIADVKMTAAFPTERWFWFDPPFHSGQSALLHRQPDDVWRIDLQIGPEADAAVERQPERVRPRIERMLGHGDFSFEWISIYKFQCRRMQRFLHERVIFAGDSAHQVSPFGARGANSGLEDGENLAWKLDLVLRGQAPASLLDSYDIERSQAADDNIRHSTRSTDFIAPHSKQERRLRDAVLALAHDVEFAKRMVNAGRLSTPSVYQSSLSTDDVDVWSSGPVPGAAMRDAPLRAADGTLVYLTEAFMQAGGGFVLLERANGAAAPVPQGVRSLRIGGDAPLRDDEGVFAARYDATPGAAYLLRPDGYVAARFRHPTQAAVDAALARACGRLEHHHHHH, MAHHHHHHMHADGMHTEQDEFTLSQYVQRTPLARPLGLKIGARVMLRTNLAPGLVNGSLGTVVAFRKLEMDQLPRYIVGNAQREESILQYADYLKYEQGFEVPLVPVLDFNGRQEVIPPVTHFVGGLPNTHFYSMGIIALPLSLAYAFTVHKVQGLTLVGRVHLELSRMWPCEHLLYVAMSRVRNPEQLSVSSFHPSLVRAAADCLLFDDSLPPVTQVRIAPYMVAATWRRSSERRKKTVLRKRLEAYVKRRQQRLQSEASKGDIRAEIRLLEEKMLKQRVRASAAHRKRRSTPGKLGAVAGSPMV, MSKKIRTEAVDYLFDAILSLKDKEECYTFFEDICTINELLSLSQRFEVAKMLREQKTYLEIAEKTGASTATISRVNRSLNYGNDGYDMVFERMEK, MGSDKIHHHHHHMSGDTCLCPASGAKPKISGFKGGGLGNKYVQLNVGGSLYYTTVRALTRHDTMLKAMFSGRMEVLTDKEGWILIDRCGKHFGTILNYLRDDTITLPQSRQEIQELMAEAKYYLIQGLVSTCQTALQDKKDSYQPVCNIPIITSLREEDRLIESSTKPVVKLLYNRSNNKYSYTSNSDDHLLKNIELFDKLSLRFNGRVLFIKDVIGDEICCWSFYGQGRKLAEVCCTSIVYATEKKQTKVEFPEARIYEETLNVLLYETPRVPDNSLLEATSRSRSQASPSEDEDTFELRDRVRRIHVKRYSTYDDRQLGHQSTHRD, KLEYRISYDDEKEIKAIVFIIGGYGANANIYFLDSYRNYIAKNFDVVAVHVFYHCFCQRRSDVEKYSAYKYFQEEDIENIKNLLNQFHFSYGEINNDNALFLANSLVKHVENLKMQNKLDHNFKLNFTSTFIPPNGDYQNYGIMAAIDHINALKDLVKRFPKFADLPK, MGSDKIHHHHHHMIDIKNTLLLGHRGARGEALENTLSGFEYAQNLQLSGLAGVEFDVQLSRDGQLVVFHDDTLERMCAQQSRLDQLNVSEIQRHRQFGQPIITLLDIASALNTYTYIELEVKTHSRTDYAKLVKALMHDLIDSSLASLPIVLTSFDVALHARLQRSTLLRHIPRGLLIREPELLKQAPNTALQLGCGQLGIHYPLLNHKVIQCCHQYDLPVSAWTVNDIETIKQLIDWQVDVIITDYPSYLLLP

Soluble on expression in E. coli, soluble:
MKEVMLFPLTSVVLPEGKMNLRIFEPRYKRMVKECSLQNVGFGVCLVGSEGDPKDVGNVSSIGTLVRIVDFETLSDGLLGITVAGEKRFVIKRVRADSDGLRHAEVEWLDNWQTPSQQLDFGYLSQQLAQVYEQFPQLGTLYQHRFYDDPIWVTQRWLELLPLDSHLFESLVGAQDCRPALRFLNQAIEAPSNKEARILEHHHHHH, GPGSMSDDTRYMYPARKAHAMDLGSSLNPEGDQKQTWGSVASVADAMSPTAEIKPSAPQVTHFGTGLGMQSSTGDPTLQEADSDGDKTEAVNEFDLAAYSKEDLTQTLHKRIMSRMFSAFDVTQVGYLDINKLKELCVYVGRNMSQEASEKMFDELKGIDGHITFDVFWNWWTTYPDTKMTKDTFSLVSADFSVPYHQQQLKIKDEGEIFTPSYRVKYYFKDMETGLRRRVSPWHDVPLYVRDPVRTKPENIRANRYNFICEIPKWTRAKFEIATGEPFNPIKQDIKNGVPRFYKHGDMMWNYGAFPQTWESTEVIFEDGVSGDNDPIDGVEIGMRQMRVGEIHPVRILGVLGMIDDGQMDWKVICMSVNDPVARFIKDIDDIPKFLPGCLDALREWFRVYKICQGGVENKFAFNGEYKDKTYAMKVVDESHYMWENLRKIKKKEEV
